Data: the supplement of paper PMC12338614
± gives the uncertainty stated by the source.

B1: library; numbered along this chain (parent)
chain: MEVVDPQQLGMFTEGELMSVGMDTFIHRIDSTEVIYQPRRKRAKLIGKYLMGDLLGEGSYGKVKEVLDSETLCRRAVKILKKKKLRRIPNGEANVKKEIQLLRRLRHKNVIQLVDVLYNEEKQKMYMVMEYCVCGMQEMLDSVPEKRFPVCQAHGYFCQLIDGLEYLHSQGIVHKDIKPGNLLLTTGGTLKISDLGVAEALHPFAADDTCRTSQGSPAFQPPEIANGLDTFSGFKVDIWSAGVTLYNITTGLYPFEGDNIYKLFENIGKGSYAIPGDCGPPLSDLLKGMLEYEPAKRFSIRQIRQHSWFRKKHPPAEAPVPIPPSPDTKDRWRSMTVVPYLEDLHGADEDEDLFDIEDDIIYTQDFTVPGQVPEEEASHNGQRRGLPKAVCMNGTEAAQLSTKSRAEGRAPNPARKACSASSKIRRLSACKQQ

Variants of: B1
Assay: STK11 functional score (HeLa growth suppression), rescaled enrichment; synonymous median = 1, nonsense median = 0 (normalised score)
Conditions: with HeLa; variant type: missense
Description: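 Deep mutational scan (TileSeq/POPCode codon randomisation) of full-length codon-optimised STK11 cDNA integrated at a Bxb1 landing pad (AAVS1) in HeLa cells. Restoring functional STK11 suppresses HeLa proliferation. Variant frequencies were measured by NGS before and after about two weeks of growth. The error-corrected enrichment log-ratio was rescaled so that synonymous median = 1 and nonsense median = 0, scores above 1 were compressed, and codon-level and three biological replicate scores were combined; error is the bootstrapped standard error. Scale: synonymous median = 1, nonsense median = 0; below 0.5 = damaging.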

Row | Variant | STK11 functional score
1 | MEVVDPQQLGMFTEGELMSVGMDTFIHRIDSTEVIYQPRRKRAKLIGKYLMGDLLGEGSYGKVKEVLDSETLCRRAVKILKKKKLRRIPNGEANVKKEIQLLRRLRHKNVIQLVDVLYNEEKQKMYMVMEYCVCGMQEMLDSVPEKRFPVCQAHGYFCQLIDGLEYLHSQGIVHKDIKPGNLLLTTGGTLKISDLGVAEALHPFAADDTCRTSQGSPAFQPPEIANGLDTFSGFKVDIWSAGVTLYNITTGLYPFEGDNIYKLFENIGKGSYAIPGDCGPPLFDLLKGMLEYEPAKRFSIRQIRQHSWFRKKHPPAEAPVPIPPSPDTKDRWRSMTVVPYLEDLHGADEDEDLFDIEDDIIYTQDFTVPGQVPEEEASHNGQRRGLPKAVCMNGTEAAQLSTKSRAEGRAPNPARKACSASSKIRRLSACKQQ [S283F] | 0.745 ± 0.076
2 | MEVVDPQQLGMFTEGELMSVGMDTFIHRIDSTEVIYQPRRKRAKLIGKYLMGDLLGEGSYGKVKEVLDSETLCRRAVKILKKKKLRRIPNGEANVKKEIQLLRRLRHKNVIQLVDVLYNEEKQKMYMVMEYCVFGMQEMLDSVPEKRFPVCQAHGYFCQLIDGLEYLHSQGIVHKDIKPGNLLLTTGGTLKISDLGVAEALHPFAADDTCRTSQGSPAFQPPEIANGLDTFSGFKVDIWSAGVTLYNITTGLYPFEGDNIYKLFENIGKGSYAIPGDCGPPLSDLLKGMLEYEPAKRFSIRQIRQHSWFRKKHPPAEAPVPIPPSPDTKDRWRSMTVVPYLEDLHGADEDEDLFDIEDDIIYTQDFTVPGQVPEEEASHNGQRRGLPKAVCMNGTEAAQLSTKSRAEGRAPNPARKACSASSKIRRLSACKQQ [C134F] | 0.425 ± 0.078
3 | MEVVDPQQLGMFTEGELMSVGMDTFIHRIDSTEVIYQPRRKRAKLIGKYLMGDLLGEGSYGKVKEVLDSETLCRRAVKILKKKKLRRIPNGEANVKKEIQLLRRLRHKNVIQLVDVLYNEEKQKMYMVMEYCVCGMQEMLDSVPEKRFPVCQAHGYFCQLIDGLEYLHSQGIVHKDIKPGNLLLTTGGTLKISDLGVAEALHPFAADDTCRTSQGSPAFQPPEIANGLDTFSGFKVDIWSAGVTLYNITTGLYPFEGDNIYKLFENIGKGSYAIPGDCGPPLSDLLKGMLEYEPAKRFSIRQIRQHSWFRKKHPPAEAPVPIPPSPDTKDRWRSMTVVPYLEDLHGADEDEDLFDIEDDIIYTQDFTVPGQVPEEEASHNGQRRGLPKAVCMNGTEAAQLSTKSRAEGRAPNSARKACSASSKIRRLSACKQQ [P413S] | 1.46 ± 0.27
4 | MEVVDPQQLGMFTEGELMSVGMDTFIHRIDSTEVIYQPRRKRAKLIGKYLMGDLLGEGSYGKVKEVLDSETLCRRAVKILKKKKLRRIPNGEANVKKEIQLLRRLRHKNVIQLVDVLYNEEKQKMYMVMEYCVCGMQEMLDSVPEKRFPVCQAHGYFCQLIDGLEYLHSQGIVHKDIKPGNLLLTTGGTLKISDLGVAEALHPFAADDTCRTSQGSPAFQPPEIANGLDTFSGFKVDIWSAGVTLYNITTGLYPFEGDNIYKLFENIGKGSYAIPGDCGPPLSDLLKGMLEYEPAKRFSIRQIRQHSWFRKKHPPAEAPVPIPPSPDTKDRWRSMTVVPYLEDLHGADEDEDLFDIEDDIIYTQDFTVPGQVEEEEASHNGQRRGLPKAVCMNGTEAAQLSTKSRAEGRAPNPARKACSASSKIRRLSACKQQ [P373E] | 1.51 ± 0.31
5 | MEVVDPQQLGMFTEGELMSVGMDTFIHRIDSTEVIYQPRRKRAKLIGKYLMGDLLGEGSYGKVKEVLDSETLCRRAVKILKKKKLRRIPNGEANVKKEIQLLRRLRHKWVIQLVDVLYNEEKQKMYMVMEYCVCGMQEMLDSVPEKRFPVCQAHGYFCQLIDGLEYLHSQGIVHKDIKPGNLLLTTGGTLKISDLGVAEALHPFAADDTCRTSQGSPAFQPPEIANGLDTFSGFKVDIWSAGVTLYNITTGLYPFEGDNIYKLFENIGKGSYAIPGDCGPPLSDLLKGMLEYEPAKRFSIRQIRQHSWFRKKHPPAEAPVPIPPSPDTKDRWRSMTVVPYLEDLHGADEDEDLFDIEDDIIYTQDFTVPGQVPEEEASHNGQRRGLPKAVCMNGTEAAQLSTKSRAEGRAPNPARKACSASSKIRRLSACKQQ [N109W] | 0.336 ± 0.076
6 | MEVVDPQQLGMFTEGELMSVGMDTFIHRIDSTEVIYQPRRKRAKLIGKYLMGDLLGEGSYGKVKEVLDSETLCRRAVKILKKKKLRRIPNGEANVKKEIQLLRRLRHKNVIQLVDVLYNEEKQKMYMVMEYCVCGMQEMLDSVPEKRFPVCQAHGYFCQLIDGLEYLHSQGIVHKDIKPGNLLLTTGGTLKISDLGVAEALHPFAADDTCRTSQGSPAFQPPEIANGLDTFSGFKVDIWSAGVTLYNITTGLYPFEGDNIYKLFENIGKGSYAIPGDCGPPLSDLLKGMLEYEPAKRFSIRQIRQHSWFRKKHPPAEAPVPIPPSPDTKDRWRSMTVVPYLEDLHGADEDEDLFDIEDDIIYTQDFTVPGQVPEEEASHEGQRRGLPKAVCMNGTEAAQLSTKSRAEGRAPNPARKACSASSKIRRLSACKQQ [N380E] | 1.48 ± 0.33
7 | MEVVDPQQLGMFTEGELMSVGMDTFIHRIDSTEVIYQPRRKRAKLIGKYLMGDLLGEGSYGKVKEVLDSETLCRRAVKILKKKKLRRIPNGEANVKKEIQLLRRLRHKNVIQLVDVLYNEEKQKMYMVMEYCVCGMQEMLDSVPEKRFPVCQAHGYFCQLIDGLEYLHSQGIVHKDIKPGNLLLTTGGTLKISDLGVAEALHPFAADDTCRTSQGSPAFQPPEIANGLDTFSGFKVDIWSAGVTLYNITTGLYPFEGDNIYKLFENIGKGSYAIPGDCGPPLSDLLKGMLEYEPAKRFSIRQIRQHSWFRKKHPPAEAPVPIPPSPDTKDRWRSMTVVPYLEDLHGADEDEDLFDIEDDIIYTQDFTVPGQVPEEEASHNGQRPGLPKAVCMNGTEAAQLSTKSRAEGRAPNPARKACSASSKIRRLSACKQQ [R384P] | 1.56 ± 0.24
8 | MEVVDPQQLGMFTEGELMSVGMDTFIHRIDSTEVIYQPRRKRAKLIGKYLMGDLLGEGSYGKVKEVLDSETLCRRAVKILKKKKLRRIPNGEANVKKEIQLLRRLRHKNVIQLVDVLYNEEKQKMYMVMEYCVCGMQEMLDSVPEKRFPVCQAHGYFCQLIDGLEYLHSQGIVHKDIKPGNLLLTTGGTLKISDLGVAEALHPFAADDTCRTSQGSPAFQPPEIANGLDTFSGFKVDIWSAGVTLYNITTGLYPFEGDNIYKLFENIGKSSYAIPGDCGPPLSDLLKGMLEYEPAKRFSIRQIRQHSWFRKKHPPAEAPVPIPPSPDTKDRWRSMTVVPYLEDLHGADEDEDLFDIEDDIIYTQDFTVPGQVPEEEASHNGQRRGLPKAVCMNGTEAAQLSTKSRAEGRAPNPARKACSASSKIRRLSACKQQ [G270S] | 1.47 ± 0.17
9 | MEVVDPQQLGMFTEGELMSVGMDTFIHRIDSTEVIYQPRRKRAKLIGKYLMGDLLGEGSYGKVKEVLDSETLCRRAVKILKKKKLRRIPNGEANVKKEIQLLRRLRHKNVIQLVDVLYNEEKQKMYMVMEYCVCGMQEMLDSVPEKRFPVCQAHGYFCQLIDGLEYLHSQGIVHKDIKPGNLLLTTGGTLKISDLGVAEALHPFAADDTCRTSQGSPAFQPPEIANGLDTFSGFKVDIWSAGVTLYNITTGLYPFEGDNIYKLFENIGKGSYAIPGDCMPPLSDLLKGMLEYEPAKRFSIRQIRQHSWFRKKHPPAEAPVPIPPSPDTKDRWRSMTVVPYLEDLHGADEDEDLFDIEDDIIYTQDFTVPGQVPEEEASHNGQRRGLPKAVCMNGTEAAQLSTKSRAEGRAPNPARKACSASSKIRRLSACKQQ [G279M] | 0.984 ± 0.61
10 | MEVVDPQQLGMFTEGELMSVGMDTFIHRIDSTEVIYQPRRKRAKLIGKYLMGDLLGEGSYGKVKEVLDSETLCRRAVKILKKKKLRRIPNGEANVKKEIQLLRRLRHKNVIQLVDVLYNEEKQKMYMVMEYCVCGMQEMLDSVPEKRFPVCQAHGYFCQLIDGLEYLHSQGIVHKDIKPGNLLLTTGGTLKISDLGVAEALHPFAADDTCRTSQGSPAFQPPEIANGLDTFSGFKVDIWSAGVTLYNITTGLYPFEGDNIYKLFENIGKGSYAIPGDCGPPLSDLLKGMLEYEPAKRFSIRQIRQHSWFRKKHPPAEAPVPIPPSPDTKDRWRSMTVVPYLEDLHGADEDEDLFDIEDDIIYTQDFTVPGQVPEEEASHNGQRRGLPKAVCMNGTEAAQLSTKSRAEGRAPNPARKACSASSKIRRLSACMQQ [K431M] | 1.25 ± 0.51
11 | MEVVDPQQLGCFTEGELMSVGMDTFIHRIDSTEVIYQPRRKRAKLIGKYLMGDLLGEGSYGKVKEVLDSETLCRRAVKILKKKKLRRIPNGEANVKKEIQLLRRLRHKNVIQLVDVLYNEEKQKMYMVMEYCVCGMQEMLDSVPEKRFPVCQAHGYFCQLIDGLEYLHSQGIVHKDIKPGNLLLTTGGTLKISDLGVAEALHPFAADDTCRTSQGSPAFQPPEIANGLDTFSGFKVDIWSAGVTLYNITTGLYPFEGDNIYKLFENIGKGSYAIPGDCGPPLSDLLKGMLEYEPAKRFSIRQIRQHSWFRKKHPPAEAPVPIPPSPDTKDRWRSMTVVPYLEDLHGADEDEDLFDIEDDIIYTQDFTVPGQVPEEEASHNGQRRGLPKAVCMNGTEAAQLSTKSRAEGRAPNPARKACSASSKIRRLSACKQQ [M11C] | 1.69 ± 0.36
12 | MEVVDPQQLGMFTEGELMSVGMDTFIHRIDSTEVIYQPRRKRAKLIGKYLMGDLLGEGSYGKVKEVLDSETLCRRAVKILKKKKLRRIPNGEANVKKEIQLLRRLRHKNVIQLVDVLYNEEKQKMYMVMEYCVCGMQEMLDSVPEKREPVCQAHGYFCQLIDGLEYLHSQGIVHKDIKPGNLLLTTGGTLKISDLGVAEALHPFAADDTCRTSQGSPAFQPPEIANGLDTFSGFKVDIWSAGVTLYNITTGLYPFEGDNIYKLFENIGKGSYAIPGDCGPPLSDLLKGMLEYEPAKRFSIRQIRQHSWFRKKHPPAEAPVPIPPSPDTKDRWRSMTVVPYLEDLHGADEDEDLFDIEDDIIYTQDFTVPGQVPEEEASHNGQRRGLPKAVCMNGTEAAQLSTKSRAEGRAPNPARKACSASSKIRRLSACKQQ [F148E] | 0.147 ± 0.17
13 | MEVVDPQQLGMFTEGELMSVGMDTFIHRIDSTEVIYQPRRKRAKLIGKYLMGDLLGEGSYGKVKEVLDSETLCRRAVKILKKKKLRRIPNGEANVKKEIQLLRRLRHKNVIQLVDVLYNEEKQKMYMVMEYCVCGMQEMLDSVPEKRFPVCQAHGYFCQLIDGLEYLHSQGIVHKDIKPGNLLLTTGGTLKISDLGVAEALHPFAADDTCRTSQGSPAFQPPEIANGLDTFSGFKVDIWSAGVTLYNITTGLYPFEGDNIYKLFENIGKGSYAIPGDCGPPLSDLLKGMLEYEPAKRFSIRQIRQHSWFRKKHPPAEAPVYIPPSPDTKDRWRSMTVVPYLEDLHGADEDEDLFDIEDDIIYTQDFTVPGQVPEEEASHNGQRRGLPKAVCMNGTEAAQLSTKSRAEGRAPNPARKACSASSKIRRLSACKQQ [P321Y] | 0.641 ± 0.72
14 | MEVVDPQQLGMFTEGELMSVGMDTFIHRIDSTEVIYQPRRKRAKLIGKYLMGDLLGEGSYGKVKEVLDSETLCRRAVKILKKKKLRRIPNGEANVKKEIQLLRRLRHKNVIQLVDVLYNEEKQKMYMVMEYCVCGMQEMLDSVPEKRFPVCQAHGYFCQLIDGLEYLHSQGIVHKDIKPGNLLLTTGGTLKISDLGVAEALHPFAADDTCRTSQGSPAFQPPEIANGLDTFSGFKVDIWSAGVTLYNITTGLYPFEGDNIYKLFENIGKGSYAIPGDCGPPLSDLLKGMLEYEPAKRFSIRQIRQHSWFRKKHPPAEAPVPIPPSPDTKDRWRSMTVVPYLEDLAGADEDEDLFDIEDDIIYTQDFTVPGQVPEEEASHNGQRRGLPKAVCMNGTEAAQLSTKSRAEGRAPNPARKACSASSKIRRLSACKQQ [H345A] | 1.56 ± 0.14
